Measured values from patent US20160159862A1 (PROTAGONIST THERAPEUTICS, published 2016).
Numbered stars: 1 amine (or outer) side, 2 acyl side, 3 side chain; on linkers, the order of the positions; unused ones are H or OH. Bridge positions count the residues as written; N and C are the ends. Square brackets hold non-standard residues; d marks the D form. Ends that are not written are not given here. Phe(4-OMe) = COc1ccc(C[C@H](N[*:1])C(=O)[*:2])cc1; Phe(4-COOH) = N[C@@H](Cc1ccc(C(=O)O)cc1)C(=O)O; Phe(4-tBu) = CC(C)(C)c1ccc(C[C@H](N)C(=O)O)cc1; Phe(2-CONH2) = NC(=O)c1ccccc1C[C@H](N)C(=O)O; Bip = N[C@@H](Cc1ccc(-c2ccccc2)cc1)C(=O)O; Phe(4-F) = N[C@@H](Cc1ccc(F)cc1)C(=O)O; 1Nal = N[C@@H](Cc1cccc2ccccc12)C(=O)O; 2Nal = N[C@@H](Cc1ccc2ccccc2c1)C(=O)O; Diglycolyl = O=C(COCC(=O)[*:2])[*:1]; NMeR = CN[C@@H](CCCNC(=N)N)C(=O)O; Tic = O=C(O)[C@@H]1Cc2ccccc2CN1; Cit = NC(=O)NCCC[C@H](N)C(=O)O; Pen = CC(C)(S)[C@H](N)C(=O)O; Dab = NCC[C@H](N)C(=O)O

Molecular target: α4β7 integrin on human cells (human, UniProt P13612 34-1032; P26010 20-798)
Test: cell-based or functional assay

| α4β7 cell (Hu) IC50 [nM] | Binder |
| --- | --- |
| > 10 | Ac-[Pen][NMeR]SDTL[Pen]W[dW][dK]-NH2 (disulfide 1-7 (inferred); also: dimer via DIG) [SEQ ID NO 110] |
| > 50 | Ac-[Pen][NMeR]SDTL[Pen]WN[dK]-NH2 (disulfide 1-7 (inferred); also: homodimer linked by DIG) [SEQ ID NO 83] |
| > 500 | Ac-[Pen][NMeR]SDTL[Pen][1Nal][dL][dK]-NH2 (disulfide 1-7 (inferred); also: homodimer via DIG) [SEQ ID NO 113] |
| > 25 | Ac-[Pen][NMeR]SDTL[Pen]WD[dK]-NH2 (disulfide 1-7 (inferred); also: homodimer linked by DIG) [SEQ ID NO 87] |
| > 25 | Ac-[Pen][NMeR]SDTL[Pen]W[dE][dK]-NH2 (disulfide 1-7 (inferred); also: homodimer linked by IDA, IDA-Biotine) [SEQ ID NO 71] |
| ≤ 10 | Ac-[Pen][NMeR]SDTL[Pen][Phe(4-tBu)][dE][dK]-NH2 (disulfide 1-7 (inferred); also: dimer via DIG) [SEQ ID NO 106] |
| > 50 | Ac-[Pen][NMeR]SDTL[Pen][Phe(2,4-Cl)][dE][dK]-NH2 (disulfide 1-7 (inferred); also: dimer via DIG) [SEQ ID NO 101] |
| > 1000 | [Pen][NMeR]SDTL[Pen][dF]-NH2 (disulfide 1-7 (inferred); not fully specified (N-terminus); printed as DIG-NH2-Pen-(N-Me-R)-S-D-T-L-Pen-f-NH2, disulfide; also: DIG-NH2 at N-terminus, probably DIG-linked dimer) [SEQ ID NO 7] |
| > 100 | Ac-[Pen][NMeR]SDTL[Pen]WPK-NH2 (disulfide 1-7 (inferred); also: homodimer linked by DIG) [SEQ ID NO 95] |
| > 50 | Ac-[Pen][NMeR]SDTL[Pen]W[dP]K-NH2 (disulfide 1-7 (inferred); also: homodimer linked by DIG) [SEQ ID NO 96] |
| > 10 | XRSDTLXWK ((Ac-Pen-(N-Me-R)-S-D-T-L-Pen-W-k-OH)2-DIG; disulfide) [SEQ ID NO 76] |
| ≤ 10 | Ac-[Pen][NMeR]SDTL[Pen]WE[Dab]-NH2 (disulfide 1-7 (inferred); also: homodimer linked by DIG) [SEQ ID NO 97] |
| > 10000 | Ac-[Pen][NMeR]SDTL[Pen]W[dE][dK] (disulfide 1-7 (inferred); not fully specified (residue 10); printed as Ac-Pen-(N-Me-R)-S-D-T-L-Pen-W-e-k-Ac) [SEQ ID NO 66] |
| > 25 | Ac-[Pen][NMeR]SDTL[Pen][Phe(4-F)][dE][dK]-NH2 (disulfide 1-7 (inferred); also: dimer via DIG) [SEQ ID NO 107] |
| > 50 | Ac-[Pen][NMeR]SDTL[Pen]W[Phe(4-COOH)][dK]-NH2 (disulfide 1-7 (inferred); also: dimer via DIG) [SEQ ID NO 105] |
| > 100 | Ac-[Pen][NMeR]SDTL[Pen]W[dH][dK]-NH2 (disulfide 1-7 (inferred); also: dimer via DIG) [SEQ ID NO 104] |
| > 10 | Ac-[Pen][NMeR]SDTL[Pen]W[Cit][dK]-NH2 (disulfide 1-7 (inferred); also: homodimer linked by DIG) [SEQ ID NO 84] |
| > 100 | Ac-[Pen][NMeR]SDTL[Pen]W[Tic][dK]-NH2 (disulfide 1-7 (inferred); also: dimer via DIG) [SEQ ID NO 109] |
| > 25 | Ac-[Pen][NMeR]SDTL[Pen]W[dE][dK]-NH2 (disulfide 1-7 (inferred); also: homodimer linked by IDA, IDA-PEG4-Biotine) [SEQ ID NO 72] |
| > 50 | Diglycolyl-C[NMeR]SDTLCW-NH2 (disulfide 1-7 (inferred); not fully specified; printed as DIG-NH2-C-(N-Me-R)-S-D-T-L-C-W-NH2) [SEQ ID NO 6] |

| α4β7 cell (Hu) IC50 [nM] | Binder |
| --- | --- |
| > 50 | Ac-[dK]C[NMeR]SDTLCW[dK]-NH2 (disulfide 2-8 (inferred); not fully specified; printed as DIG-(Ac-k-C-(N-Me-R)-S-D-T-L-C-W-k-NH2)2-DIG) [SEQ ID NO 5] |
| > 50 | Ac-[Pen][NMeR]SDTL[Pen][1Nal][dH][dK]-NH2 (disulfide 1-7 (inferred); also: homodimer via DIG) [SEQ ID NO 112] |
| > 50 | Ac-[Pen][NMeR]SDTL[Pen][Phe(2-CONH2)][dE][dK]-NH2 (disulfide 1-7 (inferred); also: homodimer linked by DIG) [SEQ ID NO 98] |
| > 50 | Ac-[Pen][NMeR]SDTL[Pen]WQ[dK]-NH2 (disulfide 1-7 (inferred); also: homodimer linked by DIG) [SEQ ID NO 82] |
| > 50 | Ac-[Pen][NMeR]SDTL[Pen][2Nal]E-NH2 (disulfide 1-7 (inferred)) [SEQ ID NO 75] |
| > 100 | Ac-[Pen][NMeR]SDTL[Pen][Phe(3,4-Cl)][dE][dK]-NH2 (disulfide 1-7 (inferred); also: dimer via DIG) [SEQ ID NO 102] |
| > 100 | Ac-[Pen][NMeR]SDTL[Pen]WP[dK]-NH2 (disulfide 1-7 (inferred); also: homodimer linked by DIG) [SEQ ID NO 94] |
| > 100 | XRSDTLXWK ((Ac-Pen-(N-Me-R)-S-D-T-L-Pen-W-(N-Me-K)-NH2)2-DIG; disulfide) [SEQ ID NO 77] |
| > 25 | Ac-[Pen][NMeR]SDTL[Pen]W[dE][dK]-NH2 (disulfide 1-7 (inferred); also: homodimer linked by IDA) [SEQ ID NO 70] |
| > 100 | Ac-[Pen][NMeR]SDTL[Pen][Phe(3-carbamoyl)][dE][dK]-NH2 (disulfide 1-7 (inferred); also: homodimer linked by DIG) [SEQ ID NO 99] |
| > 10 | Ac-[Pen][NMeR]SDTL[Pen][Bip][dE][dK]-NH2 (disulfide 1-7 (inferred); also: dimer via DIG) [SEQ ID NO 108] |
| > 50 | Ac-[Pen][NMeR]SDTL[Pen][Tic][dE][dK]-NH2 (disulfide 1-7 (inferred); also: homodimer linked by DIG) [SEQ ID NO 80] |
| > 25 | Ac-[Pen][NMeR]SDTL[Pen][Phe(4-OMe)][dE][dK]-NH2 (disulfide 1-7 (inferred); also: dimer via DIG) [SEQ ID NO 103] |
| > 50 | Ac-[Pen][NMeR]SDTL[Pen]W[dY][dK]-NH2 (disulfide 1-7 (inferred); also: homodimer linked by DIG) [SEQ ID NO 92] |
| ≤ 10 | Ac-[Pen][NMeR]SDTL[Pen][Phe(4-COOH)][dE][dK]-NH2 (disulfide 1-7 (inferred); also: dimer via DIG) [SEQ ID NO 100] |
| > 100 | Ac-[Pen][NMeR]SDTL[Pen][1Nal][dF][dK]-NH2 (disulfide 1-7 (inferred); also: dimer via DIG) [SEQ ID NO 111] |
| > 100 | Ac-[Pen][NMeR]SDTL[Pen]W[dF][dK]-NH2 (disulfide 1-7 (inferred); also: homodimer linked by DIG) [SEQ ID NO 91] |
| ≤ 10 | Ac-[Pen][NMeR]SDTL[Pen]WF[dK]-NH2 (disulfide 1-7 (inferred); also: homodimer linked by DIG) [SEQ ID NO 85] |
| > 500 | Ac-[Pen][NMeR]SDTLC[Tic][dE][dK]-NH2 (disulfide 1-7 (inferred); also: homodimer linked by DIG) [SEQ ID NO 93] |
